In assay [1] the target is Human GHSR (growth hormone secretagogue receptor, ghrelin receptor), purified and inserted into lipid nanodiscs (human) (UniProt Q92847). The experiment in a line: FRET or BRET; competition: time-resolved energy transfer between purified GHSR labeled with Lumi4-Tb at its N-terminus and dy647-labeled ghrelin (0.1 µM range), increasing competitor; GHSR in 17 nm nanodiscs (cNW30 scaffold); isolated receptor without G protein. (In general: In BRET a luciferase serves as donor, and the signal depends on an acceptor being close.)

For assay [2] the target is unchanged. As to the kind of experiment: FRET or BRET; competition: time-resolved energy transfer between purified GHSR labeled with Lumi4-Tb at its N-terminus and dy647-labeled ghrelin (0.1 µM range), increasing competitor; GHSR in 12 nm nanodiscs (MSP1E3D1(-) scaffold); isolated receptor without G protein.

Chain of UniProt Q92847 (Q92847 whole entry): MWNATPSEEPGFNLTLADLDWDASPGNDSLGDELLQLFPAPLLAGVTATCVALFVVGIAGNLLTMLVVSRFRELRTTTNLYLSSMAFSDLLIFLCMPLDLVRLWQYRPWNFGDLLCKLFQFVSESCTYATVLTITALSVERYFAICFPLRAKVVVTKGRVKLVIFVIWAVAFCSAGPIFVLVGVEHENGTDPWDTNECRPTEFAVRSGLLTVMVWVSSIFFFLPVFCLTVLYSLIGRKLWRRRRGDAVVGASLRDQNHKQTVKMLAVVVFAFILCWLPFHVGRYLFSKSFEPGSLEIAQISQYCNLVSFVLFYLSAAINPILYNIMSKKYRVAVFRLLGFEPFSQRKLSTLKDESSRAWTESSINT

As to “LEAP2(1-14), the active N-terminal region of the natural inverse agonist LEAP2 (peptide)”, the Ki (as a rule, a measure of affinity in units of concentration, obtained from inhibition or displacement) in assay [1] was found to be 4.6 nM; in assay [2] it was 6.7 nM.

The values are drawn from PMC8225672.
